From patent publication US20250269012A1 (AKAMIS BIO, published 2025)

T1: EpCAM (human, UniProt P16422 24-314)
T1 construct: whole, on cells; also called EpCAM cell surface target antigen on A549 and SKOV3 cells
T1 sequence (looked up): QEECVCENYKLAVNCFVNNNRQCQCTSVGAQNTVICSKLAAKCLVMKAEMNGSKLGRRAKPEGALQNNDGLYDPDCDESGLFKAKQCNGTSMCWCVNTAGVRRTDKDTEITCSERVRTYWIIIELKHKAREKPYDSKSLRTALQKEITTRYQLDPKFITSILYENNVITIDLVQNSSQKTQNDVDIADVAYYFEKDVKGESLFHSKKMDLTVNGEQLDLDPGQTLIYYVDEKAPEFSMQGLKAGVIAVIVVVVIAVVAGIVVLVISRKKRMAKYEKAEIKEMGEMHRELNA

B1: anti-EpCAM-ScFv-human CD19 EC domain fusion protein (without a C-terminal tag) (other)
chain: ELVMTQSPSSLTVTAGEKVTMSCKSSQSLLNSGNQKNYLTWYQQKPGQPPKLLIYWASTRESGVPDRFTGSGSGTDFTLTISSVQAEDLAVYYCQNDYSYPLTFGAGTKLEIKGGGGSGGGGSGGGGSEVQLLEQSGAELVRPGTSVKISCKASGYAFTNYWLGWVKQRPGHGLEWIGDIFPGSGNIHYNEKFKGKATLTADKSSSTAYMQLSSLTFEDSAVYFCARLRNWDEPMDYWGQGTTVTVSSGGGGSPEEPLVVKVEEGDNAVLQCLKGTSDGPTQQLTWSRESPLKPFLKLSLGLPGLGIHMRPLAIWLFIFNVSQQMGGFYLCQPGPPSEKAWQPGWTVNVEGSGELFRWNVSDLGGLGCGLKNRSSEGPSSPSGKLMSPKLYVWAKDRPEIWEGEPPCVPPRDSLNQSLSQDLTMAPGSTLWLSCGVPPDSVSRGPLSWTHVHPKGPKSLLSLELKDDRPARDMWVMETGLLLPRATAQDAGKYYCHRGNLTMSFHLEITARPVLWHWLLRTGGWK
notes: also called bispecific protein of NG-1109
B2: anti-EpCAM-ScFv-flexible linker-RAET1G3 fusion protein (without a C-terminal tag) (other)
chain: ELVMTQSPSSLTVTAGEKVTMSCKSSQSLLNSGNQKNYLTWYQQKPGQPPKLLIYWASTRESGVPDRFTGSGSGTDFTLTISSVQAEDLAVYYCQNDYSYPLTFGAGTKLEIKGGGGSGGGGSGGGGSEVQLLEQSGAELVRPGTSVKISCKASGYAFTNYWLGWVKQRPGHGLEWIGDIFPGSGNIHYNEKFKGKATLTADKSSSTAYMQLSSLTFEDSAVYFCARLRNWDEPMDYWGQGTTVTVSSGAGGSGGSSGSDGASGSRGLADPHSLCYDITVIPKFRPGPRWCAVQGQVDEKTFLHYDCGSKTVTPVSPLGKKLNVTTAWKAQNPVLREVVDILTEQLLDIQLENYIPKENRMWTTVHPGARKMKEKWENDKDMTMSFHYISMGDCTGWLEDFLMGMDSTLEPSAGGTV
notes: also called bispecific protein of NG-1117
B3: RAET1G3-anti-EpCAM-ScFv fusion protein (without a C-terminal tag) (other)
chain: GLADPHSLCYDITVIPKFRPGPRWCAVQGQVDEKTFLHYDCGSKTVTPVSPLGKKLNVTTAWKAQNPVLREVVDILTEQLLDIQLENYIPKENRMWTTVHPGARKMKEKWENDKDMTMSFHYISMGDCTGWLEDFLMGMDSTLEPSAGGTVGGGGSELVMTQSPSSLTVTAGEKVTMSCKSSQSLLNSGNQKNYLTWYQQKPGQPPKLLIYWASTRESGVPDRFTGSGSGTDFTLTISSVQAEDLAVYYCQNDYSYPLTFGAGTKLEIKGGGGSGGGGSGGGGSEVQLLEQSGAELVRPGTSVKISCKASGYAFTNYWLGWVKQRPGHGLEWIGDIFPGSGNIHYNEKFKGKATLTADKSSSTAYMQLSSLTFEDSAVYFCARLRNWDEPMDYWGQGTTVTVSS
notes: also called bispecific protein of NG-1112
B4: anti-EpCAM-ScFv-RAET1G3 fusion protein (without a C-terminal tag) (other)
chain: ELVMTQSPSSLTVTAGEKVTMSCKSSQSLLNSGNQKNYLTWYQQKPGQPPKLLIYWASTRESGVPDRFTGSGSGTDFTLTISSVQAEDLAVYYCQNDYSYPLTFGAGTKLEIKGGGGSGGGGSGGGGSEVQLLEQSGAELVRPGTSVKISCKASGYAFTNYWLGWVKQRPGHGLEWIGDIFPGSGNIHYNEKFKGKATLTADKSSSTAYMQLSSLTFEDSAVYFCARLRNWDEPMDYWGQGTTVTVSSGGGGSGLADPHSLCYDITVIPKFRPGPRWCAVQGQVDEKTFLHYDCGSKTVTPVSPLGKKLNVTTAWKAQNPVLREVVDILTEQLLDIQLENYIPKENRMWTTVHPGARKMKEKWENDKDMTMSFHYISMGDCTGWLEDFLMGMDSTLEPSAGGTV
notes: also called bispecific protein of NG-1111
B5: anti-EpCAM-ScFv-flexible linker-human CD19 EC domain fusion protein (without a C-terminal tag) (other)
chain: ELVMTQSPSSLTVTAGEKVTMSCKSSQSLLNSGNQKNYLTWYQQKPGQPPKLLIYWASTRESGVPDRFTGSGSGTDFTLTISSVQAEDLAVYYCQNDYSYPLTFGAGTKLEIKGGGGSGGGGSGGGGSEVQLLEQSGAELVRPGTSVKISCKASGYAFTNYWLGWVKQRPGHGLEWIGDIFPGSGNIHYNEKFKGKATLTADKSSSTAYMQLSSLTFEDSAVYFCARLRNWDEPMDYWGQGTTVTVSSGAGGSGGSSGSDGASGSRPEEPLVVKVEEGDNAVLQCLKGTSDGPTQQLTWSRESPLKPFLKLSLGLPGLGIHMRPLAIWLFIFNVSQQMGGFYLCQPGPPSEKAWQPGWTVNVEGSGELFRWNVSDLGGLGCGLKNRSSEGPSSPSGKLMSPKLYVWAKDRPEIWEGEPPCVPPRDSLNQSLSQDLTMAPGSTLWLSCGVPPDSVSRGPLSWTHVHPKGPKSLLSLELKDDRPARDMWVMETGLLLPRATAQDAGKYYCHRGNLTMSFHLEITAR
notes: also called bispecific protein of NG-1113; bispecific protein of NG-1115
B6: anti-EpCAM-ScFv-rigid linker-human CD19 EC domain fusion protein (without a C-terminal tag) (other)
chain: ELVMTQSPSSLTVTAGEKVTMSCKSSQSLLNSGNQKNYLTWYQQKPGQPPKLLIYWASTRESGVPDRFTGSGSGTDFTLTISSVQAEDLAVYYCQNDYSYPLTFGAGTKLEIKGGGGSGGGGSGGGGSEVQLLEQSGAELVRPGTSVKISCKASGYAFTNYWLGWVKQRPGHGLEWIGDIFPGSGNIHYNEKFKGKATLTADKSSSTAYMQLSSLTFEDSAVYFCARLRNWDEPMDYWGQGTTVTVSSTPSHLSHILPSFGLPTFNPEEPLVVKVEEGDNAVLQCLKGTSDGPTQQLTWSRESPLKPFLKLSLGLPGLGIHMRPLAIWLFIFNVSQQMGGFYLCQPGPPSEKAWQPGWTVNVEGSGELFRWNVSDLGGLGCGLKNRSSEGPSSPSGKLMSPKLYVWAKDRPEIWEGEPPCVPPRDSLNQSLSQDLTMAPGSTLWLSCGVPPDSVSRGPLSWTHVHPKGPKSLLSLELKDDRPARDMWVMETGLLLPRATAQDAGKYYCHRGNLTMSFHLEITAR
notes: also called bispecific protein of NG-1114; bispecific protein of NG-1116
B7: anti-EpCAM-ScFv-rigid linker-RAET1G3 fusion protein (without a C-terminal tag) (other)
chain: ELVMTQSPSSLTVTAGEKVTMSCKSSQSLLNSGNQKNYLTWYQQKPGQPPKLLIYWASTRESGVPDRFTGSGSGTDFTLTISSVQAEDLAVYYCQNDYSYPLTFGAGTKLEIKGGGGSGGGGSGGGGSEVQLLEQSGAELVRPGTSVKISCKASGYAFTNYWLGWVKQRPGHGLEWIGDIFPGSGNIHYNEKFKGKATLTADKSSSTAYMQLSSLTFEDSAVYFCARLRNWDEPMDYWGQGTTVTVSSTPSHLSHILPSFGLPTFNGLADPHSLCYDITVIPKFRPGPRWCAVQGQVDEKTFLHYDCGSKTVTPVSPLGKKLNVTTAWKAQNPVLREVVDILTEQLLDIQLENYIPKENRMWTTVHPGARKMKEKWENDKDMTMSFHYISMGDCTGWLEDFLMGMDSTLEPSAGGTV
notes: also called bispecific protein of NG-1118
B8: human CD19 EC domain-anti-EpCAM-ScFv fusion protein (without a C-terminal tag) (other)
chain: PEEPLVVKVEEGDNAVLQCLKGTSDGPTQQLTWSRESPLKPFLKLSLGLPGLGIHMRPLAIWLFIFNVSQQMGGFYLCQPGPPSEKAWQPGWTVNVEGSGELFRWNVSDLGGLGCGLKNRSSEGPSSPSGKLMSPKLYVWAKDRPEIWEGEPPCVPPRDSLNQSLSQDLTMAPGSTLWLSCGVPPDSVSRGPLSWTHVHPKGPKSLLSLELKDDRPARDMWVMETGLLLPRATAQDAGKYYCHRGNLTMSFHLEITARPVLWHWLLRTGGWKGGGGSELVMTQSPSSLTVTAGEKVTMSCKSSQSLLNSGNQKNYLTWYQQKPGQPPKLLIYWASTRESGVPDRFTGSGSGTDFTLTISSVQAEDLAVYYCQNDYSYPLTFGAGTKLEIKGGGGSGGGGSGGGGSEVQLLEQSGAELVRPGTSVKISCKASGYAFTNYWLGWVKQRPGHGLEWIGDIFPGSGNIHYNEKFKGKATLTADKSSSTAYMQLSSLTFEDSAVYFCARLRNWDEPMDYWGQGTTVTVSS
notes: also called bispecific protein of NG-1110

Molecular target: T1, EpCAM
Assay: flow cytometry, supernatant of transfected A549 cells on fresh A549 cells
Description: These plasmids were transfected into A549 human lung tumour cells and cells cultured for 72 hours. Cell culture supernatants (SN) containing secreted bispecific proteins were collected and added to fresh untransfected A549 cells in suspension and incubated for 1.5 hours at room temperature. During this time, the bispecific proteins present in the SN can bind to the A549 cells through their anti-EpCAM ScFv or anti-HER2 ScFV portion. […] For designs having CD19 as CAR-T target, the CD19 extracellular domain portion of the protein was detected by flow cytometry using an anti-CD19 antibody.

Binder	binding result
B1	binds
B2	binds
B3	no binding
B4	binds
B5	binds
B6	binds
B7	binds
B8	no binding
